Results as given in article PMC9352680, “A comprehensive thermodynamic model for RNA binding by the Saccharomyces cerevisiae Pumilio protein PUF4”.
Residue numbers refer to the chain shown, from its start. In names and notes the source's numbering stands.

T1: PUF4 RNA-binding domain (Saccharomyces cerevisiae, UniProt P25339 537-888)
T1 sequence: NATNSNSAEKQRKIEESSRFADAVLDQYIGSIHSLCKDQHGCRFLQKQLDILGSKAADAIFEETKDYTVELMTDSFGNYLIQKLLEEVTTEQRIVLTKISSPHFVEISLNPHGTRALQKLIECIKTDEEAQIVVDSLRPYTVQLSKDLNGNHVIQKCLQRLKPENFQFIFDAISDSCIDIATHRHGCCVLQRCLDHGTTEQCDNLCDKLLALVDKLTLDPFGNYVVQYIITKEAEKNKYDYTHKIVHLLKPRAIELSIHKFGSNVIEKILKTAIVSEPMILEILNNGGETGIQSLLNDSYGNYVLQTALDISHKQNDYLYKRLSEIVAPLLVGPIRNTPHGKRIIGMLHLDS

B1: Ic_S2_P5E.1_K5.1_C5.1_H5.1_A5.1_[T6G]_[A7T]_F5.1_[T8C]_[T9A]_[A10C]_T5.1 (ssRNA)
RNA: UUUGAUUAAUAUGAUAUCGUUCUUUCUUGUAUGUCACUUCUUUCUCGAUAUCAUAUUAAUCUUU
B2: Ic_S2_P5E.1_K5.1_C5.1_H5.1_A5.1_[T5C]_[A7C]_F5.1_[T9C]_[A10G]_T5.1 (ssRNA)
RNA: B1 RNA with U32C, G33U, U34C, C35U, A36C, C37G
B3: Ic_S2_P5E.1_K5.1_C5.1_H5.1_A5.1_[T5G]_F5.1_[T8A]_[T9A]_T5.1 (ssRNA)
RNA: B1 RNA with U32G, G33U, U34A, C35A, C37A
B4: Ic_S2_P4E.1_K4.1_C4.1_H4.1_A4.1_[A6T]_[T7C]_F4.1_[T8C]_[A9C]_T4.1 (ssRNA)
RNA: UUUGAUUAAUAUGAUAUCGUUCUUUCUUGUAUUCCCUUCUUUCUCGAUAUCAUAUUAAUCUUU
B5: Ic_S2_P4E.1_K4.1_C4.1_H4.1_A4.1_[T7C]_F4.1_[T8C]_[A9C]_T4.1 (ssRNA)
RNA: B4 RNA with U33A
B6: Ic_S2_P4E.1_K4.1_C4.1_H4.1_A4.1_[T7C]_F4.1_[T8A]_[A9T]_T4.1 (ssRNA)
RNA: B4 RNA with U33A, C35A, C36U
B7: Ic_S2_P4E.1_K4.1_C4.1_H4.1_A4.1_[A6T]_F4.1_[T8A]_[A9T]_T4.1 (ssRNA)
RNA: B4 RNA with C34U, C35A, C36U
B8: Ic_S2_P4E.1_K4.1_C4.1_H4.1_A4.1_[T7G]_F4.1_[T8C]_[A9C]_T4.1 (ssRNA)
RNA: B4 RNA with U33A, C34G
B9: Ic_S2_P4E.1_K4.1_C4.1_H4.1_A4.1_[A6T]_[T7C]_F4.1_[T8A]_[A9C]_T4.1 (ssRNA)
RNA: B4 RNA with C35A
B10: Ic_S2_P4E.1_K4.1_C4.1_H4.1_A4.1_[A6T]_[T7C]_F4.1_[T8A]_T4.1 (ssRNA)
RNA: B4 RNA with C35A, C36A
B11: Ic_S2_P4E.1_K4.1_C4.1_H4.1_A4.1_[T7C]_F4.1_[T8A]_[A9C]_T4.1 (ssRNA)
RNA: B4 RNA with U33A, C35A
B12: Ic_S2_P4E.1_K4.1_C4.1_H4.1_A4.1_[A6T]_[T7A]_F4.1_[T8C]_[A9G]_T4.1 (ssRNA)
RNA: B4 RNA with C34A, C36G
B13: Ic_S2_P4E.1_K4.1_C4.1_H4.1_A4.1_[A6T]_[T7C]_F4.1_[T8A]_[A9G]_T4.1 (ssRNA)
RNA: B4 RNA with C35A, C36G
B14: Ic_S2_P4E.1_K4.1_C4.1_H4.1_A4.1_[A6T]_[T7A]_F4.1_[T8A]_[A9T]_T4.1 (ssRNA)
RNA: B4 RNA with C34A, C35A, C36U
B15: Ic_S2_P4E.1_K4.1_C4.1_H4.1_A4.1_[A6T]_F4.1_[T8A]_[A9C]_T4.1 (ssRNA)
RNA: B4 RNA with C34U, C35A
B16: Ic_S2_P4E.1_K4.1_C4.1_H4.1_A4.1_[A6T]_F4.1_[T8C]_[A9C]_T4.1 (ssRNA)
RNA: B4 RNA with C34U
B17: Ic_S2_P4E.1_K4.1_C4.1_H4.1_A4.1_[A6T]_F4.1_[T8G]_[A9C]_T4.1 (ssRNA)
RNA: B4 RNA with C34U, C35G
B18: Ic_S2_P4E.1_K4.1_C4.1_H4.1_A4.1_[A6T]_[T7A]_F4.1_[A9G]_T4.1 (ssRNA)
RNA: B4 RNA with C34A, C35U, C36G
B19: Ic_S2_P4E.1_K4.1_C4.1_H4.1_A4.1_F4.1_T4.1 (ssRNA)
RNA: B4 RNA with U33A, C34U, C35U, C36A
B20: Ic_S2_P4E.1_K4.1_C4.1_H4.1_A4.1_[A6T]_[T7C]_F4.1_[T8A]_[A9T]_T4.1 (ssRNA)
RNA: B4 RNA with C35A, C36U
B21: Ic_S2_P4E.1_K4.1_C4.1_H4.1_A4.1_[T7C]_F4.1_[T8G]_[A9C]_T4.1 (ssRNA)
RNA: B4 RNA with U33A, C35G
B22: Ic_S2_P4E.1_K4.1_C4.1_H4.1_A4.1_[A6T]_[T7A]_F4.1_[T8G]_[A9C]_T4.1 (ssRNA)
RNA: B4 RNA with C34A, C35G
B23: Ic_S2_P4E.1_K4.1_C4.1_H4.1_A4.1_[A6T]_[T7C]_F4.1_[A9C]_T4.1 (ssRNA)
RNA: B4 RNA with C35U
B24: Ic_S2_P4E.1_K4.1_C4.1_H4.1_A4.1_[A6T]_F4.1_[T8C]_[A9T]_T4.1 (ssRNA)
RNA: B4 RNA with C34U, C36U
B25: Ic_S2_P4E.1_K4.1_C4.1_H4.1_A4.1_[T7C]_F4.1_[T8C]_[A9T]_T4.1 (ssRNA)
RNA: B4 RNA with U33A, C36U

Target: T1, PUF4 RNA-binding domain
Experiment: Mg; RNA-MaP; 20 mM Na-HEPES pH 7.4, 30 mM KOAc, 0.75 mM MgCl2, 0.1% Tween-20, 5% glycerol, 0.1 mg/mL BSA, 2 mM DTT; 25 C; 0.0125-409.6 nM protein
Settings: tags: N-His6-TEV cleaved; C-SNAP kept, Cy3B-labelled; label: tethered on chip by stalled RNA polymerase

Row | Binder | Kd
1 | B1 | 293 nM
2 | B2 | 152 nM
3 | B3 | 656 nM
4 | UCUCUUUGUAUAUACUCUCUU (ssRNA) [Ib_S1_P4E.1_K4.1_C4.1_H4.1_A4.1_F4.1_[T8A]_[A9C]_T4.1] | 8.2 nM
5 | B4 | 162 nM
6 | B5 | 31.3 nM
7 | B6 | 16.4 nM
8 | B7 | 9.81 nM
9 | B8 | 53.8 nM
10 | B9 | 595 nM
11 | B10 | 201 nM
12 | B11 | 60.4 nM
13 | B12 | 93.7 nM
14 | B13 | 350 nM
15 | B14 | 78.2 nM
16 | B15 | 106 nM
17 | B16 | 52.7 nM
18 | B17 | 195 nM
19 | B18 | 4.55 nM
20 | B19 | 0.224 nM
21 | B20 | 89.9 nM
22 | B21 | 55.7 nM
23 | B22 | 685 nM
24 | B23 | 12.7 nM
25 | B24 | 21.7 nM
26 | B25 | 15.8 nM
27 | UCUCUUUUUAUAUAAUCUCUU (ssRNA) [Ib_S1_P4E.1_K4.1_C4.1_H4.1_[G2T]_A4.1_F4.1_[T8A]_T4.1] | 2120 nM
28 | UCUCUUUAUAUAUCAUCUCUU (ssRNA) [Ib_S1_P4E.1_K4.1_C4.1_H4.1_[G2A]_A4.1_F4.1_[T8C]_T4.1] | 1060 nM
29 | UCUCUUUGUAUAUAUUCUCUU (ssRNA) [Ic_S1_P4E.1_K4.1_C4.1_H4.1_A4.1_F4.1_[T8A]_[A9T]_T4.1] | 3.56 nM
